Results published in patent publication US20240270828A1 (UAB RESEARCH FOUNDATION, published 2024).

T1: Spike of MERS-CoV on infected Vero E6 cells and live virus (MERS-CoV, UniProt K9N5Q8 18-1353)
T1 sequence: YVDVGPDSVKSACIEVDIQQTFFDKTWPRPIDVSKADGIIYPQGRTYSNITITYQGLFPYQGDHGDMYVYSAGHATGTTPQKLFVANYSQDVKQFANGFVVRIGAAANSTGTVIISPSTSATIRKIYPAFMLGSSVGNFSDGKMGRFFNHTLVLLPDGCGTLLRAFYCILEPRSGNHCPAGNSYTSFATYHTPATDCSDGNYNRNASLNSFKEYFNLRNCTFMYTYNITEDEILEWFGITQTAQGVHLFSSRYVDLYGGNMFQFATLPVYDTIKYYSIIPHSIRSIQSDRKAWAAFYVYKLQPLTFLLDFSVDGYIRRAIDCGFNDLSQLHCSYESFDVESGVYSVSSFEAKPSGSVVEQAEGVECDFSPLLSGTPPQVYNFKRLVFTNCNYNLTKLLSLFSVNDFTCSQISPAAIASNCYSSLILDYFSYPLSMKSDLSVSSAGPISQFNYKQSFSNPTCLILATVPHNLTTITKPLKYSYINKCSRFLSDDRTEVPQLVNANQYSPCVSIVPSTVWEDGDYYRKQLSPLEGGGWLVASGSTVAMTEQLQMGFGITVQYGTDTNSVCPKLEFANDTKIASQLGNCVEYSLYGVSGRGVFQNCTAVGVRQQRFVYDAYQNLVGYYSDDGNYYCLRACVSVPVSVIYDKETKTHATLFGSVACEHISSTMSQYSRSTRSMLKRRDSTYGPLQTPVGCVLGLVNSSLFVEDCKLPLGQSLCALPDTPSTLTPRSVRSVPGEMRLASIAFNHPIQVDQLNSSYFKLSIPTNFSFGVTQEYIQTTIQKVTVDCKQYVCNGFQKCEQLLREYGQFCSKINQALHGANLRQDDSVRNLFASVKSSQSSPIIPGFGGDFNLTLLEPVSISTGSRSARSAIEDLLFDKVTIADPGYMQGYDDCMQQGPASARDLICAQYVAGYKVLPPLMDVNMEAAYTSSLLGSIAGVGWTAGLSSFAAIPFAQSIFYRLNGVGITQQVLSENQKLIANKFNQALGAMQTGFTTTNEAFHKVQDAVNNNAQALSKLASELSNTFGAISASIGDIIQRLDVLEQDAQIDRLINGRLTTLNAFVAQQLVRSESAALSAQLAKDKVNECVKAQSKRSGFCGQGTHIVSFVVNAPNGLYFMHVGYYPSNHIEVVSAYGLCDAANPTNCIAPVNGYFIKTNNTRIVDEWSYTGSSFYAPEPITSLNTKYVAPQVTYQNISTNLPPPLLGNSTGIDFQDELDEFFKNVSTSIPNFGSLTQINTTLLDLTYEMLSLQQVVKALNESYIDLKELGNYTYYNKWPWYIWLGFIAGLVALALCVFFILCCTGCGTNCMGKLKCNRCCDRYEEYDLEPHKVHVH

B1: 1235C10 (antibody, V domains shown)
VH: EVQLVESGGGLVQPGRSLRLSCTASGFTFGDHSMSWVRQAPGKGLEWVGFIRSKAYGGTTEYAASVKGRFTISRDDSKSIAYLQMNSLKIEDTAVYYCTRGLTGLDYWGQGMLVTVSS
VL: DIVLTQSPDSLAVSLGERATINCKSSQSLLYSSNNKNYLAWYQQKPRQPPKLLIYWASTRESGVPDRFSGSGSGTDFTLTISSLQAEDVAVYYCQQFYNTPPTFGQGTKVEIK
notes: Recombinant human IgG1
B2: 1250D2 (antibody, V domains shown)
VH: QVQLVQSGAEVKKPGASMKVSCKASGFTFSDYYMHWVRQAPRQGLEWMGLINPSGSGTAYAQNFQGRVTLTRDTSTSTLYMEMGSLTSDDTAVYYCARMDSSGSYDHWGQGTLVTVSS
VL: EIVLTQSPGTLSLSPGDRATLSCRASQTIRISYLAWYQQKPGQAPRLLVYGPSIRATGIPDRFSASGSGTDFTLTISRLEPEDFAVYYCQHYGSSPPRYTFGQGTKLEIK
notes: Recombinant human IgG1
B3: 1246C2 (antibody, V domains shown)
VH: QVQLVQSGGGLVKPGGSLRLSCAASGFTFKTHNMIWVRQAPGKVLEWVSSISGSSSYRYYGDSMKGRLTISRDNAKNSLYLEMNSLRAEDTAVYYCARDKGVGPTMVWYFDLWGRGTLVTVSS
VL: EIVLTQSPATLSLSPGDRATLSCRASQSLSISLAWYQQKPGQAPRLLIYDASIRATGVPPRFSGSGSGTDFTLTISSLEPEDFAVYYCQQWSGWPPRLTFGGGTKVEIK
B4: 1250E10 (antibody, V domains shown)
VH: EVQLVQSGAEVKKPGASVKFSCKASGFRVDGSYMHWVRQAPRGGLEWMGLINPSGSGTAYAQIFQGRVTLTRDTSTSTLYMELGSLGSEDTAMYYCARMDRSGSYDLWGQGTLVIVSS
VL: DIVLTQSPGNLSLSPGERATLSCRASESIRSAYIAWYQQKPGQAPRLLMRGASVRAAGIPDRFSGSGSGTDYALTISRLEPEDFAVYYCQHFASSPPRYTFGQGTKLEIK
notes: Recombinant human IgG1
B5: 1212C2 (antibody, V domains shown)
VH: QVQLVQSGAEVKKPGASVKVSCKASGYIFTDYFIHWVRQAPGQGLEWMGWINPNSGGTKYAQKFQGRVTMTRDTSISTVYMELSRLRSDDTAVHYCTRDLPLRTLYDSYGFDSWGQGTLVTVSS
VL: LPVLTQPASVSGSPGQSITISCTGTSSDVGSYNLVSWYQQHPGKAPKLMIYDVSKRPSGVSNRFSGSKSGNTASLTISGLQAEDEADYYCCSYAGNSIVFFGGGTKLTVL
B6: 1242G6 (antibody, V domains shown)
VH: QVQLVQSGGGVVQPGTSVRLSCAASGFTFSDHGMHWVRQAPGKGLEWVAVISFEGRNKFFADSVKGRSTISRDNSKNTVSMQVDNVRPEDTAVYYCAREHFDGSGSDYIGTRFFDYWGRGALVTVSS
VL: DIQLTQSPSFLSASVGDRVTITCRASQGISHYLTWYQQKPGKAPKLLIYRTSTLQSGVPSRFSGSGSGTVFTLTISSLQPEDLATYYCQHLDNFPTITFGQGTRLDLK
notes: Recombinant human IgG1
B7: 1242F4 (antibody, V domains shown)
VH: EVQLVQSGAEVKKPGTSVKVSCKASGNTVADYYMHWVRQAPRQGLEWVGLINPSGSGTAYAQNFQGRVTLTRDTSTSTLYMELGSLGSEDTAIYYCARMDSSGTYDVWGQGTLVTVSS
VL: EIVLTQSPGTLSLSPGERATLSCRASQSIRSGYLAWYQQKPGQAPRLLIRGASVKATGIPDRFSGSGSGTDFTLTISRLEPEDFVVYYCQHFASSPPRYTFGQGTKLEIK
notes: Recombinant human IgG1
B8: 1232D5 (antibody, V domains shown)
VH: EVQLVESGGGVVQPGGSLRLSCAASGFTFSNYGMHWVRQAPSKGLEWVAFIRYDGTNKYYADSVKGRFTISRDNSKNTLYLQINSLRAEDTAVYYCAIIAVAGDVNPDYWGQGTLVTVSS
VL: not shown
B9: 1246H7 (antibody, V domains shown)
VH: QVQLQQSGPGLMKPSETLSLTCTVSGGSISSSSYYWGWIRQPPGKGLEWIGSIYYSGATYYNPSLKSRVTISVDTSKNQLSLKLSSVTAADTAVYYCVNRYYDYVWGSWGVDCWGQGTLVTVSS
VL: QAGLTQPRSVSGSPGQSVTISCTGTSSDVGGYNYVSWYQQHPGKAPKLMIYDVNKRPSGVPDRFSGSKSGNTASLTISGLQAEDEADYFCCSYAGSYTYWVFGGGTKLTVL
B10: 1242D11 (antibody, V domains shown)
VH: QVQLVQSGGGLVQPGGSLRLSCAVSGFTFSSYWMSWVRQAPGKGLEWVANIKQDGSEKYYVDSVKGRFTISRDNAKNSLFLQMNSLRAEDTAVYYCAREAVGYYYDSRGYHYSWYFDLWGRGTLVTVSS
VL: EIVLTQSPGTLSLSPGERATLSCRASQSVSSSYLVWYQQKPGQAPRLLIFGASSRATGIPDRFSGSGSGTDFTLTISSLEPEDFAVYYCQHYGSSPPMYTFGQGTKLEIK
B11: 1242F11 (antibody, V domains shown)
VH: QVQLVQSGGGLVQPGGSLRLSCAASGFTFSSYWMTWVRQAPGKGLEWVANIKQDGREIYYVDSVKGRFTLSRDNAKNSLYLQMNSLRAEDTAVFYCARIRVFVSADSEGYHYYYGLDVWGQGTTVTVSP
VL: not shown

Each binder was assayed against Spike of live SARS-CoV-2 WT virus (SARS-CoV-2, UniProt P0DTC2 14-1273) (assay: cell-based or functional assay).
B1 was tested, and the “Neutralization IC50 (µg/ml), Live Virus WT” value (shortened to “Neutralization IC50 (µg/ml)”) was 10.4 µg/mL.
For B2, the “Neutralization IC50 (µg/ml)” value was 2.36 µg/mL.
In the case of B3, the “Neutralization IC50 (µg/ml)” value is reported as greater than 50 µg/mL.
With B4 the “Neutralization IC50 (µg/ml)” value was greater than 50 µg/mL.
For B5, the “Neutralization IC50 (µg/ml)” value was 0.003 µg/mL.
B6 was tested, and the “Neutralization IC50 (µg/ml)” value was greater than 50 µg/mL.
In the case of B7, the “Neutralization IC50 (µg/ml)” value is reported as 36.5 µg/mL.

What follows are binders tested against T2, SARS-CoV-2 S1+S2 (40589-V08B1, Sino Biological) (SARS-CoV-2, UniProt P0DTC2 16-1213) (assay: ELISA, hmAb at 10 and 1 ug/ml in duplicate; AUC).
B1 was tested, and the “Binding AUC” value was 25.2.
For B2, the “Binding AUC” value was 25.3.
In the case of B3, the “Binding AUC” value is reported as 18.
In the case of B8, the “Binding AUC” value is reported as 11.7.
In the case of B9, the “Binding AUC” value is reported as 5.
B4 was tested, and the “Binding AUC” value was 26.
With B10 the “Binding AUC” value was 21.4.
B6 was tested, and the “Binding AUC” value was 24.3.
In the case of B7, the “Binding AUC” value is reported as 27.

These binders were tested against T3, SARS-CoV-2 S2 (40590-V08B, Sino Biological) (SARS-CoV-2, UniProt P0DTC2 686-1213) (assay: ELISA, hmAb at 10 and 1 ug/ml in duplicate; AUC).
T3 construct: domain: S2
In the case of B1, the “Binding AUC” value is reported as 26.9.
For B2, the “Binding AUC” value was 28.2.
With B3 the “Binding AUC” value was 17.4.
B9 was tested, and the “Binding AUC” value was 4.8.
B4 was tested, and the “Binding AUC” value was 27.9.
B10 was tested, and the “Binding AUC” value was 24.4.
B6 was tested, and the “Binding AUC” value was 22.6.
For B7, the “Binding AUC” value was 28.5.

What follows are binders tested against T4, SARS-CoV-2 S1 (40591-V08H3, Sino Biological) (SARS-CoV-2, UniProt P0DTC2 16-685) (assay: ELISA, hmAb at 10 and 1 ug/ml in duplicate; AUC).
T4 construct: domain: S1
For B1, the “Binding AUC” value was 0.8 and the binding result was “no binding (tested: 10 ug/ml)”.
For B2, the “Binding AUC” value was 1.7 and the binding result was “no binding (tested: 10 ug/ml)”.
In the case of B3, the “Binding AUC” value is reported as 4.2 and the binding result is reported as “no binding (tested: 10 ug/ml)”.
B8 was tested, and the “Binding AUC” value was 1.1.
B9 was tested, and the “Binding AUC” value was 1.7.
For B4, the “Binding AUC” value was 2.9 and the binding result was “no binding (tested: 10 ug/ml)”.
With B10 the “Binding AUC” value was 2.9.
In the case of B6, the “Binding AUC” value is reported as 3.8.
With B7 the “Binding AUC” value was 1.3 and the binding result was “no binding (tested: 10 ug/ml)”.

What follows are binders tested against T2, SARS-CoV-2 S1+S2 (40589-V08B1, Sino …) (assay: ELISA on coated protein, anti-human IgG-HRP; AUC of the OD).
For B1, the “Binding AUC” value was 25.2.
B11 was tested, and the “Binding AUC” value was 24.1.
B2 was tested, and the “Binding AUC” value was 25.3.
B3 was tested, and the “Binding AUC” value was 18.
With B8 the “Binding AUC” value was 11.7.
B9 was tested, and the “Binding AUC” value was 5.
For B4, the “Binding AUC” value was 26.
For B10, the “Binding AUC” value was 21.4.
For B6, the “Binding AUC” value was 24.3.
With B7 the “Binding AUC” value was 27.

Each binder was assayed against T3, SARS-CoV-2 S2 (40590-V08B, Sino …) in the same assay as above.
B1 was tested, and the “Binding AUC” value was 26.9.
With B2 the “Binding AUC” value was 28.2.
In the case of B3, the “Binding AUC” value is reported as 17.4.
In the case of B9, the “Binding AUC” value is reported as 4.8.
For B4, the “Binding AUC” value was 27.9.
B10 was tested, and the “Binding AUC” value was 24.4.
For B6, the “Binding AUC” value was 22.6.
For B7, the “Binding AUC” value was 28.5.

What follows are binders tested against T4, SARS-CoV-2 S1 (40591-V08H3, Sino …) in the same assay as above.
B1 was tested, and the “Binding AUC” value was 0.8.
In the case of B11, the “Binding AUC” value is reported as 1.9.
For B2, the “Binding AUC” value was 1.7.
B3 was tested, and the “Binding AUC” value was 4.2.
In the case of B8, the “Binding AUC” value is reported as 1.1 and the binding result is reported as “no binding”.
In the case of B9, the “Binding AUC” value is reported as 1.7 and the binding result is reported as “no binding”.
In the case of B4, the “Binding AUC” value is reported as 2.9.
For B10, the “Binding AUC” value was 2.9 and the binding result was “no binding”.
B6 was tested, and the “Binding AUC” value was 3.8 and the binding result was “no binding”.
In the case of B7, the “Binding AUC” value is reported as 1.3.

Each binder was assayed against Spike of SARS-CoV (Urbani) on infected Vero E6 cells and live virus (SARS-CoV, UniProt P59594 14-1255) (assay: immunofluorescence on infected Vero E6 cells, 1 µg/ml).
B2: binds.
B7: binds.

What follows are binders tested against T1, Spike of MERS-CoV on infected Vero E6 … in the same assay as above.
B2: binds.
B7: binds.
